Legend:
Experiment in all cases: peptide microarray (RepliTope), 15-mers
Reference peptide no. 24 = target: T1, Reference peptide no. 24
T1 construct: hIL-2 15-mer, first library, on microarray; also called peptide 24
T1 peptide: LNLAQSKNFHLRPRD
Method: (§1) Additional incubations are with unrelated antibodies from the same isotype (mouse control IgG2a/lambda and mouse control IgG2a/kappa), and secondary antibodies (anti-mouse IgG (Thermo 84545, label DL650) or anti-mouse IgG (JIR 115-175-072, Label Cy5)) to assess unspecific binding due to the detection antibody. The experiments are performed essentially as described in Maksimov P, et al. 2012, PLoS One 7:e34212. doi:10.1371/journal. pone. 0034212.
(§2) The determination of peptide-antibody binding was performed by RepliTope-analysis where the peptide microarray (triplicate) was incubated with the primary antibody followed by a fluorescently labelled secondary antibody directed against the Fc-part of the primary one. All steps were performed on a TECAN microarray processing station enabling highly reliable and reproducible washing and incubation steps. After performing the incubation steps and subsequent to the final washing steps (to remove the unbound secondary antibodies) the microarrays were dried using a nitrogen stream and scanned in a high resolution microarray scanning system with appropriate wavelength settings. Control incubations were performed with an unrelated antibody having the same isotype to exclude false positive signals.
(§3) The resulting images were analyzed und quantified using spot-recognition software GenePix (Molecular Devices). For each spot, the mean signal intensity was extracted (between 0 and 65535 arbitrary units). For further data evaluation, the MMC2 values were determined. The MMC2 equals the mean value of all three instances on the microarray. Except the coefficient of variation (CV)—standard-deviation divided by the mean value—is larger 0.5, in this case the mean of the two closest values (MC2) is assigned to MMC2.

Reference peptide no. 41 = target: T2, Reference peptide no. 41
T2 construct: hIL-2 15-mer, first library, parental Cys replaced by Ser, on microarray; also called peptide 41
T2 peptide: NRWITFSQSIISTLT
Method: as §1, §2, §3

Reference peptide no. 14 = target: T3, Reference peptide no. 14
T3 construct: hIL-2 15-mer, first library, on microarray; also called peptide 14
T3 peptide: LTFKFYMPKKATELK
Method: as §1, §2, §3

Reference peptide no. 59 = target: T4, Reference peptide no. 59
T4 construct: second library: peptide 23 with L(92) to Ala; also called peptide 59
T4 peptide: EEVLNAAQSKNFHLR
Method: as §1, §2, §3

Reference peptide no. 39 = target: T5, Reference peptide no. 39
T5 construct: hIL-2 15-mer, first library, parental Cys replaced by Ser, on microarray; also called peptide 39
T5 peptide: VEFLNRWITFSQSII
Method: as §1, §2, §3

Reference peptide no. 1 = target: T6, Reference peptide no. 1
T6 construct: hIL-2 15-mer, first library, on microarray; also called peptide 1
T6 peptide: APTSSSTKKTQLQLE
Method: as §1, §2, §3

Reference peptide no. 34 = target: T7, Reference peptide no. 34
T7 construct: hIL-2 15-mer, first library, parental Cys replaced by Ser, on microarray; also called peptide 34
T7 peptide: ETTFMSEYADETATI
Method: as §1, §2, §3

Reference peptide no. 52 = target: T8, Reference peptide no. 52
T8 construct: second library: peptide 11 with F(62) and Y(65) to Ala; also called peptide 52
T8 peptide: YKNPKLTRMLTAKFA
Method: as §1, §2, §3

Reference peptide no. 28 = target: T9, Reference peptide no. 28
T9 construct: hIL-2 15-mer, first library, on microarray; also called peptide 28
T9 peptide: PRDLISNINVIVLEL
Method: as §1, §2, §3

Reference peptide no. 47 = target: T10, Reference peptide no. 47
T10 construct: second library: peptide 11 with Y(65) to Ala; also called peptide 47
T10 peptide: YKNPKLTRMLTFKFA
Method: as §1, §2, §3

Reference peptide no. 45 = target: T11, Reference peptide no. 45
T11 construct: second library: peptide 13 with F(62) to Ala; also called peptide 45
T11 peptide: TRMLTAKFYMPKKAT
Method: as §1, §2, §3

Reference peptide no. 35 = target: T12, Reference peptide no. 35
T12 construct: hIL-2 15-mer, first library, parental Cys replaced by Ser, on microarray; also called peptide 35
T12 peptide: FMSEYADETATIVEF
Method: as §1, §2, §3

Reference peptide no. 36 = target: T13, Reference peptide no. 36
T13 construct: hIL-2 15-mer, first library, on microarray; also called peptide 36
T13 peptide: EYADETATIVEFLNR
Method: as §1, §2, §3

Reference peptide no. 50 = target: T14, Reference peptide no. 50
T14 construct: second library: peptide 14 with Y(65) to Ala; also called peptide 50
T14 peptide: LTFKFAMPKKATELK
Method: as §1, §2, §3

Reference peptide no. 3 = target: T15, Reference peptide no. 3
T15 construct: hIL-2 15-mer, first library, on microarray; also called peptide 3
T15 peptide: TKKTQLQLEHLLLDL
Method: as §1, §2, §3

Reference peptide no. 5 = target: T16, Reference peptide no. 5
T16 construct: hIL-2 15-mer, first library, on microarray; also called peptide 5
T16 peptide: QLEHLLLDLQMILNG
Method: as §1, §2, §3

Reference peptide no. 40 = target: T17, Reference peptide no. 40
T17 construct: hIL-2 15-mer, first library, parental Cys replaced by Ser, on microarray; also called peptide 40
T17 peptide: LNRWITFSQSIISTL
Method: as §1, §2, §3

Reference peptide no. 42 = target: T18, Reference peptide no. 42
T18 construct: second library: peptide 10 with F(62) to Ala; also called peptide 42
T18 peptide: INNYKNPKLTRMLTA
Method: as §1, §2, §3

Reference peptide no. 30 = target: T19, Reference peptide no. 30
T19 construct: hIL-2 15-mer, first library, on microarray; also called peptide 30
T19 peptide: NINVIVLELKGSETT
Method: as §1, §2, §3

Reference peptide no. 26 = target: T20, Reference peptide no. 26
T20 construct: hIL-2 15-mer, first library, on microarray; also called peptide 26
T20 peptide: KNFHLRPRDLISNIN
Method: as §1, §2, §3

Reference peptide no. 2 = target: T21, Reference peptide no. 2
T21 construct: hIL-2 15-mer, first library, on microarray; also called peptide 2
T21 peptide: SSSTKKTQLQLEHLL
Method: as §1, §2, §3

Reference peptide no. 12 = target: T22, Reference peptide no. 12
T22 construct: hIL-2 15-mer, first library, on microarray; also called peptide 12
T22 peptide: PKLTRMLTFKFYMPK
Method: as §1, §2, §3

Reference peptide no. 21 = target: T23, Reference peptide no. 21
T23 construct: hIL-2 15-mer, first library, on microarray; also called peptide 21
T23 peptide: EELKPLEEVLNLAQS
Method: as §1, §2, §3

Reference peptide no. 19 = target: T24, Reference peptide no. 19
T24 construct: hIL-2 15-mer, first library, parental Cys replaced by Ser, on microarray; also called peptide 19
T24 peptide: HLQSLEEELKPLEEV
Method: as §1, §2, §3

binding result (Reference peptide no. 24): no binding
binding result (Reference peptide no. 41): no binding
binding result (Reference peptide no. 14): no binding
binding result (Reference peptide no. 59): no binding
binding result (Reference peptide no. 39): no binding
binding result (Reference peptide no. 1): no binding
binding result (Reference peptide no. 34): no binding
binding result (Reference peptide no. 52): no binding
binding result (Reference peptide no. 28): no binding
binding result (Reference peptide no. 47): no binding
binding result (Reference peptide no. 45): no binding
binding result (Reference peptide no. 35): no binding
binding result (Reference peptide no. 36): no binding
binding result (Reference peptide no. 50): no binding
binding result (Reference peptide no. 3): no binding
binding result (Reference peptide no. 5): no binding
binding result (Reference peptide no. 40): no binding
binding result (Reference peptide no. 42): no binding
binding result (Reference peptide no. 30): no binding
binding result (Reference peptide no. 26): no binding
binding result (Reference peptide no. 2): no binding
binding result (Reference peptide no. 12): no binding
binding result (Reference peptide no. 21): no binding
binding result (Reference peptide no. 19): no binding
B1: NARA1 (antibody, mouse IgG2a, kappa, V domains shown)
VH: QVQLQQSGAELVRPGTSVKVSCKASGYAFTNYLIEWVKQRPGQGLEWIGVINPGSGGTNYNEKFKGKATLTADKSSSTAYMQLSSLTSDDSAVYFCARWRGDGYYAYFDVWGAGTTVTVSS
VL: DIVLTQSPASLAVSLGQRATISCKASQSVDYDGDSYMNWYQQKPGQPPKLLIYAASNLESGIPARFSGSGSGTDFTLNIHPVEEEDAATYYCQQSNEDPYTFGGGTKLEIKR
notes: Mouse monoclonal from hybridoma; Isotype controls used were mouse IgG2a; also called anti-IL2 (NARA1) antibody; monoclonal antibody NARA1

From US20170183403A1 (UNIVERSIT T Z RICH, published 2017)
